Data: paper PMC3769231

Legend:
[1] = target: human liver cathepsin L (human); assay: enzyme inhibition assay (Ki from substrate hydrolysis progress curves); human cathepsin L activity in 400 mM sodium acetate buffer (pH 5.5), 40 µM Z-FR-AMC, 25°C, with or without NtCYS, reducing conditions
[2] = target: papain (from papaya latex) (papaya) (UniProt P00784); assay: enzyme inhibition assay (Ki from substrate hydrolysis progress curves); papain activity in 50 mM phosphate buffer (pH 6.0), 40 µM Z-FR-AMC, 37°C, with or without NtCYS, reducing conditions
Sequence of papain (from papaya latex) (papaya) (P00784 134-345): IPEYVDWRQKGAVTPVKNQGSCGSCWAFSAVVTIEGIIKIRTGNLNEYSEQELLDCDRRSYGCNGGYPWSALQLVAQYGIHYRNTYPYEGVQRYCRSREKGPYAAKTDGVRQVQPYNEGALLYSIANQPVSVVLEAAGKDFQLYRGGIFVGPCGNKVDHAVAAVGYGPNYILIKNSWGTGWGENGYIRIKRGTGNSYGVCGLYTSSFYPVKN

[3] = target: recombinant NtCP14 (N. tabacum); assay: enzyme inhibition assay (Ki(app) = [I0]/(V0/Vi-1)); apparent; recombinant NtCP14 activated in 100 mM sodium acetate (pH 4.0); hydrolysis of 40 µM Bz-FVR-AMC at 30°C, pH 6.0, reducing conditions, NtCYS varied
Sequence of recombinant NtCP14 (N. tabacum) (main, as listed by the source): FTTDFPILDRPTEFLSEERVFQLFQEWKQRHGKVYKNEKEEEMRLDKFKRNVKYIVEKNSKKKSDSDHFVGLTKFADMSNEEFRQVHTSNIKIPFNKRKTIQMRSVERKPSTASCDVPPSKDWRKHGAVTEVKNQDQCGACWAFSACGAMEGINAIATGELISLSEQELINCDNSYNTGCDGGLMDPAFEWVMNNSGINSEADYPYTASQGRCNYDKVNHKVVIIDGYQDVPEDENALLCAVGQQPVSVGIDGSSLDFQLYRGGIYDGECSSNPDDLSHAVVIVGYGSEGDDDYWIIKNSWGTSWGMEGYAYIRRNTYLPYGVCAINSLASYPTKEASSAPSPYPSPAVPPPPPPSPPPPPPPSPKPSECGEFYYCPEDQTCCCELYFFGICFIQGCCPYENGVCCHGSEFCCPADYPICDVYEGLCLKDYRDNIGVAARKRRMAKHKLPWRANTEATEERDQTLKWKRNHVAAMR

recombinant NtCYS (natural protein) was tested, and the Ki [1] was 0.39 nM, the Ki [2] was 64.5 nM and the Ki [3] was 740 nM.
